Test results reported in patent US20040175378A1, “Selected antibody compositions and methods for binding to aminophospholipids” (Board of Regents, The University of Texas System, priority 2002, published 2004).

Columns and labels:
[1] = system: apoptotic tumor cells; assay: Dendritic cell uptake of apoptotic tumor cells; assay type: cell-based; settings: Fc(γ)R mediated internalization of 3G4-ATC complexes
[2] = mouse, in vivo, iv
[3] = system: various tumors; assay: 3G4 in syngeneic and xenogeneic tumor models, overall
[4] = system: Meth A fibrosarcoma; assay: 3G4 tumor treatment; assay type: in vivo, mouse
Method: (§1) In the subcutaneous model, mice are typically injected with 1×10^7 cells in 0.2 ml. Mice are not anesthetized, but are restrained using a steady grip of mouse skin exposing the right flank. A 1 ml syringe with a 23 gauge needle is used to inject 1×10^7 cells in 200 μl, just under the skin of the mice and a bleb will be seen. It is not unusual to observe a small amount of fluid leak from the injection site. A twisting motion may be used when withdrawing the needle from the subcutaneous injection to reduce this leakage. Tumor volume is measured by L×W×H.
(§2) Treatment was repeated 3 times a week. Animals were monitored twice a week for tumor measurements.

[5] = Liposome competition for 3G4 binding to immobilized PS; settings: 3G4 0.1 μg/ml
Method: Liposomes were prepared from solutions of 5 mg of a single phospholipid in chloroform. The solutions were dried under nitrogen to form a thin layer in a round-bottomed glass flask. Ten ml of Tris buffer (0.1 M, pH 7.4) were then added and the flask was sonicated five times for 2 min. […] The mixture was added to PS-coated plates (after standard blocking), incubated for 1 hour, washed and the secondary antibody added. After 1 hour, the plates were washed and developed for 5 minutes using OPD.

[6] = Binding to heparin, heparan sulfate and DNA
[7] = ELISA binding to anionic phospholipids in 5 mM EDTA (Ca2+ requirement)
Method: The specificity of the 9D2 antibody binding was validated by using control rat IgM of irrelevant specificity (Pharmingen, San Diego, Calif.). The specificity of annexin V binding to phospholipids, which is Ca^2+-dependent, was determined by diluting the reagent in the DPBS containing 5 mM EDTA. Additional negative controls consisted of washing the plates with the binding buffer containing 0.2% of a detergent Tween 20. This treatment extracts lipids, thus removing the phospholipid that was absorbed to plastic. Neither 9D2 antibody nor annexin V bound to detergent-washed plates.

[8] = system: Tissue Factor (TF)-induced coagulation
[9] = system: Pichinde virus; assay type: cell-based
[10] = system: human CMV AD169; assay: CMV viral load by plaque assay; assay type: cell-based; settings: for decrease in viral titer: high m.o.i.
[11] = system: orthotopic MDA-MB-435 breast cancer; assay: 3G4 and ch3G4 tumor treatment; assay type: in vivo, mice
Method: Tumors were also established using MD-MBA-435s cells and treated as described above. […] The treatment of large L540 tumors, MDA-MB-231 and MD-MBA-435s tumor cells for 60 days is shown in FIG. 8D, FIG. 8E and FIG. 8F. The antibodies caused tumor vascular injury, thrombosis and necrosis and retarded tumor growth, with no evidence of toxicity.
MD-MBA-435s lucerifase cells were obtained from Dr. Angels Sierra Jimenez, Barcelona, Spain and were grown in 10% DMEM. Mice were injected with tumor cells as described as above, and at 2 weeks post injection, the tumors were measured and the volume recorded. […] Treatment was initiated by IP injection (800 μg) at day 15 and continued with injections of 200 μg every two to three days until the final injection of 400 μg at day 35. Tumor volumes and mouse body weights were measured on injection days. Mice were sacrificed and perfused with saline for 12 minutes. The organs and tumor were removed, snap-frozen in liquid nitrogen and the tumor sectioned for immunohistochemistical analysis.

[12] = system: L540 human Hodgkin's lymphoma; assay: 3G4 tumor treatment; assay type: in vivo, mice; settings: subcutaneous L540 xenografts
Method: as §1, §2

[13] = system: H2O2-treated HL-60 tumor cells; assay: Macrophage phagocytosis of PS-positive tumor cells; settings: 5 μg/ml, vs isotype-matched control antibody
[14] = system: tumor cells; assay: Direct effect of 3G4 on tumor cells in vitro; assay type: cell-based
[15] = system: bEnd.3 cells; assay: Growth of bEnd.3 cells in vitro; assay type: cell-based; settings: 20 μg to 40 μg total IgG per well, 48 and 96 hours
Method: 20% DMEM alone (control) or 20% DMEM containing the antibodies (20 μg to 40 μg total IgG per well) was added 4 hours after seeding. Each clone was tested on two separate plates in triplicates. Cells were detached 48 and 96 hours later, the cell count was determined in each well and the average cell number per treatment was calculated.

[16] = system: mCMV RVG102; assay: Survival of mCMV-infected mice; assay type: in vivo, Balb/C mice; settings: 1 mg/mouse i.p. day 1, 0.5 mg/mouse every four days until day 26; past 90 days
[17] = Toxicity of 3G4 in mice; assay type: in vivo, BALB/c mice
Excerpt: The following parameters were specifically examined.
There were no physical signs of toxicity, e.g. hair loss, loss of appetite, etc. […] Marrows in the treated animals were essentially completely cellular (as would be expected for a young mammal). Erythroid, granulocytic, lymphocytic progenitors and megakaryocytes were present in normal numbers.
Mice retain normal physical signs, bone marrow cellularity, white blood cell counts, histology and coagulation functions.

[18] = m.o.i. 0.01 pfu/cell, 100 μg/ml
[19] = 100 μg IP three times a week for 2 to 3 weeks

B1: 3G4: mouse IgG3 kappa monoclonal antibody binding PS and other anionic phospholipids; hybridoma ATCC PTA 4545 (antibody, V domains shown)
VH: EVQLQQSGPELEKPGASVKLSCKASGYSFTGYNMNWVKQSHGKSLEWIGHIDPYYGDTSYNQKFRGKATLTVDKSSSTAYMQLKSLTSEDSAVYYCVKGGYYGHWYFDVWGAGTTVTVSSATTTAPSVYPLVP
VL: DIQMTQSPSSLSASLGERVSLTCRASQDIGSSLNWLQQGPDGTIKRLIYATSSLDSGVPKRFSGSRSGSDYSLTISSLESEDFVDYYCLQYVSSPPTFGAGTKLELKRADAAPTVFIFGRIP
For B1, the “enhancement of DC uptake of apoptotic tumor cells” value [1] was 300%, the Volume of distribution [2] was 0.1 L/kg and the “half-life in the α-phase of clearance” value [2] was 3 h. For the same molecule, the “half-life in the β-phase of clearance” value [2] was 120 h, the “toxicity in treated tumor-bearing mice” value ([3]; 100 μg i.p. 3 times a week) was “No toxicity was observed” and the “localization after intravenous injection” value ([3]; mice bearing various tumors) was “specifically and consistently localized to the tumor, but not to normal organs”. The “mice with long-term complete remissions” value ([4]; Meth A-bearing mice) was 50%, the growth retardation ([4]; syngeneic Meth A) was 90% and the “binding to PS adsorbed to ELISA plates in the presence of liposomes” value [5] was “blocked by liposomes prepared from PS, PA, PI, PG and CL”. For the same molecule, the “binding to heparin, heparan sulfate or double or single stranded DNA” value [6] was “does not bind detectably”, the “binding to anionic phospholipids in the presence of 5 mM EDTA” value [7] was “unaffected by the presence of 5 mM EDTA” and the “inhibition of Tissue Factor (TF)-induced coagulation” value [8] was “weak inhibition”. The infected cells [9] was “about one in about a hundred cells”, the “decrease in viral titer” value ([10]; addition delayed to 48 hours) was 2 log10 and the “decrease in viral titer” value ([10]; addition up to 24 hours after infection) was 5-6 log10. For the same molecule, the “decrease in viral titer as compared to GV39G-treatment” value ([10]; m.o.i. 0.01 pfu/cell, 50 μg/ml) was 3.5 log10, the “decrease in viral titer as compared to GV39G-treated cells” value [10, 18] was 6 log10 and the “inhibition of viral replication” value [10, 18] was “approximately 99.9999%”. For the same molecule, the “inhibition of viral replication compared to GV39G” value ([10]; m.o.i. 3, 50 μg/ml) was 3 logs, the “decrease in viral titer as compared to GV39G-treated cells” value ([10]; m.o.i. 3, 100 μg/ml) was 5 log10 and the “tumor growth as opposed to control” value ([11]; i.p. 800 μg day 15, 200 μg every two to three days, 400 μg day 35) was “effectively retarded tumor growth”. For the same molecule, the growth retardation ([11]; orthotopic MDA-MB-435) was 70%, the growth retardation [12] was 65% and the “increase in phagocytosis of PS-positive cells by macrophages” value [13] was “more than three fold”. For the same molecule, the “direct inhibitory effect on tumor cells” value [14] was “No direct inhibitory effect on tumor cells was observed”, the “inhibitory effect on growth of bEnd.3 cells” value [15] was “particularly effective” and the survival [16] was 100%. For the same molecule, the blood cell counts [17, 19] was “no changes in blood cell counts”, the bodyweight [17, 19] was “gained weight at the same rate as BBG3 treated mice” and the toxicity ([17]; 1 mg purified 3G4 intraperitoneally) was “no toxicity was observed”. For the same molecule, the toxicity ([17]; more than 200 mice, 0.1 mg three times a week for 2-3 weeks) was “no instance of toxicity has been observed”.
